Experiments:
c-Src SH2 = test: SH2 binding enrichment of the phosphorylated peptide, bacterial display (enrichment ratio); higher = better substrate or ligand; peptides without Tyr show the background
Grb2 SH2 = Grb2 SH2 (UniProt P62993); test: as above
SHP2-C SH2 = test: as above
EPHB1 = EPHB1 (UniProt P54762); test: phosphorylation enrichment, bacterial display (enrichment ratio); higher = better substrate or ligand; peptides without Tyr show the background
Fyn = Fyn (UniProt P06241); test: as above
FGFR1 = FGFR1 (UniProt P11362); test: as above
AncSZ = test: as above
c-Src = test: as above
Jak2 = Jak2 (UniProt O60674); test: as above
Hck = Hck (UniProt P08631); test: as above
EPHB2 = EPHB2 (UniProt P29323); test: as above
Fes = Fes (UniProt P07332); test: as above
MERTK = MERTK (UniProt Q12866); test: as above
FGFR3 = FGFR3 (UniProt P22607); test: as above
Fer (mouse) = test: as above
c-Abl (mouse) = test: as above
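For SH2 binding enrichment of the phosphorylated peptide, bacterial display in this document: peptide library displayed on the E. coli surface as eCPX fusions, selected cells deep-sequenced, score is each peptide's frequency after selection divided by its frequency in the input.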
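For phosphorylation enrichment, bacterial display in this document: 11-residue human phosphosite peptides and single-mutation variants displayed on the E. coli surface, counted by deep sequencing, each peptide's frequency after selection divided by its frequency in the unselected input library; frequency after pTyr selection over input frequency; kinase dosed for 20-30% of maximal phosphorylation in three min.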

Sequence of EPHB1 (P54762 whole entry, looked up): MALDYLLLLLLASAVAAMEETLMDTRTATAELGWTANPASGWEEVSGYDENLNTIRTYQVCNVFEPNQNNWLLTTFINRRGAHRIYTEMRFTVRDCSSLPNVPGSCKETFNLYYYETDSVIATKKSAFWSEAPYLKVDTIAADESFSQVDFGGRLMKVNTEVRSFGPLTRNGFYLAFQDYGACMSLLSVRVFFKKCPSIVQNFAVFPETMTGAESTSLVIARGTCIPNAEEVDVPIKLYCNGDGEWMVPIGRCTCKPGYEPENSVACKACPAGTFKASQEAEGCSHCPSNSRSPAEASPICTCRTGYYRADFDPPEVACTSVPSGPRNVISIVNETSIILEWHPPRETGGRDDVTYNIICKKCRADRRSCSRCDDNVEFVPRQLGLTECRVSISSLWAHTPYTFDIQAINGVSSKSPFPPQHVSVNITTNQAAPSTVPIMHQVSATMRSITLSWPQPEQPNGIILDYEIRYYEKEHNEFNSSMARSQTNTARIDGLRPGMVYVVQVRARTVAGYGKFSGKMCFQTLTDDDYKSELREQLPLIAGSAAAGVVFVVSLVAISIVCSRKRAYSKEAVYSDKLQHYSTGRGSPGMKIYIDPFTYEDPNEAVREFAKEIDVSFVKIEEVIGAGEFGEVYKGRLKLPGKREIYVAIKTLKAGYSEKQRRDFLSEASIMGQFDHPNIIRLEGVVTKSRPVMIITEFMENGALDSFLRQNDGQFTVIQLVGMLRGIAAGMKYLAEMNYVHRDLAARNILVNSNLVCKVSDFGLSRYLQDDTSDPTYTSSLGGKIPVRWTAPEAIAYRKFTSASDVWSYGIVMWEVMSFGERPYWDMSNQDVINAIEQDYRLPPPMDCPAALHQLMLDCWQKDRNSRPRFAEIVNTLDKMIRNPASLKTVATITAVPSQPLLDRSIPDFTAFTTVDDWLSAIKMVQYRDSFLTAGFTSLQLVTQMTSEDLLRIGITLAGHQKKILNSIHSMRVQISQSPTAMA
Sequence of Grb2 SH2 (P62993 whole entry, looked up): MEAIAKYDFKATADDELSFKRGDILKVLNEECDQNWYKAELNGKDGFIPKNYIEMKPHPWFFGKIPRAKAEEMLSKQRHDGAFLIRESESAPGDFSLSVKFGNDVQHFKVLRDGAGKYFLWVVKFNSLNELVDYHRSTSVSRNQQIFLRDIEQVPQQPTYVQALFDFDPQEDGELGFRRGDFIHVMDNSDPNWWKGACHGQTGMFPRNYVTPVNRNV
Sequence of Hck (P08631 whole entry, looked up): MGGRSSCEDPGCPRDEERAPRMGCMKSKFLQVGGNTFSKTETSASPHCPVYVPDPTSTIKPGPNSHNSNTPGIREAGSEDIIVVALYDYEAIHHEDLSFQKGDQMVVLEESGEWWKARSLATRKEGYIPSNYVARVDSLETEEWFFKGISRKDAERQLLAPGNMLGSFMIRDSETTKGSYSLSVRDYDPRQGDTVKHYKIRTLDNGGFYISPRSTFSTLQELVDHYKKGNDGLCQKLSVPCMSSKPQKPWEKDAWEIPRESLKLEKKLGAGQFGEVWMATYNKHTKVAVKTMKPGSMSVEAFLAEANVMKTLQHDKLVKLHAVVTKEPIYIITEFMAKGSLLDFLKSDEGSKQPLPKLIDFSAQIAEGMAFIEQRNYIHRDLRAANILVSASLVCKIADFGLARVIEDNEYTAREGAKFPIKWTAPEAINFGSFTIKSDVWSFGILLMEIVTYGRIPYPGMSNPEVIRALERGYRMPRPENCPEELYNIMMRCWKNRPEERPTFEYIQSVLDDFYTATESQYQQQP
Sequence of Fes (P07332 whole entry, looked up): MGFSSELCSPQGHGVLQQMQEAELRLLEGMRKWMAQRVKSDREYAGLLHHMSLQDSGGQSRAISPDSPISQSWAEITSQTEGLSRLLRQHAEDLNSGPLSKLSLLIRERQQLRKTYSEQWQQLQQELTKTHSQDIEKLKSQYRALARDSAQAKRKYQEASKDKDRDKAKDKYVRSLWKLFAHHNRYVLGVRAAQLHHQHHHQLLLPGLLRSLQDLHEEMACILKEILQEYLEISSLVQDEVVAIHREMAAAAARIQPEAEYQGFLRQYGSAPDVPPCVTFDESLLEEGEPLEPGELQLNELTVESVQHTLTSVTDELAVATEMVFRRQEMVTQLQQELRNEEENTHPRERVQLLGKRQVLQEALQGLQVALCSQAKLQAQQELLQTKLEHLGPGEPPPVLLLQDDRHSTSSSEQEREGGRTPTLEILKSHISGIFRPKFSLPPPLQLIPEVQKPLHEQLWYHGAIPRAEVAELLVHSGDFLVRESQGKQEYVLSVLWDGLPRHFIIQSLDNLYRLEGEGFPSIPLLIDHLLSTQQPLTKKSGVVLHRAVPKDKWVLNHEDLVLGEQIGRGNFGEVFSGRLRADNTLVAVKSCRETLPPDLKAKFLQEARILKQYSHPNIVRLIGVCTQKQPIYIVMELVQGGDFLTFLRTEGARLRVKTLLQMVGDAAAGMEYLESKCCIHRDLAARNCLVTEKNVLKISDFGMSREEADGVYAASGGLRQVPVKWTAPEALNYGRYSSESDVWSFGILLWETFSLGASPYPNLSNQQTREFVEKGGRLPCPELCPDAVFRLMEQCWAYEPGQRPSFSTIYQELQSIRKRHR
Sequence of FGFR3 (P22607 whole entry, looked up): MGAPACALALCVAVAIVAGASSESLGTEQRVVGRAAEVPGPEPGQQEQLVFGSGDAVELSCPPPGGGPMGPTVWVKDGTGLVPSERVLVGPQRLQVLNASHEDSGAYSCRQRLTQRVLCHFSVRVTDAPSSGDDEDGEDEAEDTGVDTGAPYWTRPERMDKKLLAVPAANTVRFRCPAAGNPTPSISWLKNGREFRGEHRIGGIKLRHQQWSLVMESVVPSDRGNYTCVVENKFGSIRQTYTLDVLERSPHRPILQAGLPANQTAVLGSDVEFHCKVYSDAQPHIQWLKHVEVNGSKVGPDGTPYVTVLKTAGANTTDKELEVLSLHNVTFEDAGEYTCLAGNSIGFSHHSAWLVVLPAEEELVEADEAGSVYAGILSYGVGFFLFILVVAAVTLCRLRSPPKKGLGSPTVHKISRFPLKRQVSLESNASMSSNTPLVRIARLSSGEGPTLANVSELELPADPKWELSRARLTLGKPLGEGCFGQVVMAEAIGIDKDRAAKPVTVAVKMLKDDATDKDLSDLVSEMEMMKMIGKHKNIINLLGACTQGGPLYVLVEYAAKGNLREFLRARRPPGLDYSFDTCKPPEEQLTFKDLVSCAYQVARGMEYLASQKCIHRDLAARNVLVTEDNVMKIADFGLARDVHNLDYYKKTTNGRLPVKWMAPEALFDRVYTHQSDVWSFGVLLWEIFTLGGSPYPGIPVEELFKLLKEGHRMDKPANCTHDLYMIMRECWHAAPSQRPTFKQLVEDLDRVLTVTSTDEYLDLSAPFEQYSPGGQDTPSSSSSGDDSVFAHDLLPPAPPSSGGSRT
Sequence of MERTK (Q12866 whole entry, looked up): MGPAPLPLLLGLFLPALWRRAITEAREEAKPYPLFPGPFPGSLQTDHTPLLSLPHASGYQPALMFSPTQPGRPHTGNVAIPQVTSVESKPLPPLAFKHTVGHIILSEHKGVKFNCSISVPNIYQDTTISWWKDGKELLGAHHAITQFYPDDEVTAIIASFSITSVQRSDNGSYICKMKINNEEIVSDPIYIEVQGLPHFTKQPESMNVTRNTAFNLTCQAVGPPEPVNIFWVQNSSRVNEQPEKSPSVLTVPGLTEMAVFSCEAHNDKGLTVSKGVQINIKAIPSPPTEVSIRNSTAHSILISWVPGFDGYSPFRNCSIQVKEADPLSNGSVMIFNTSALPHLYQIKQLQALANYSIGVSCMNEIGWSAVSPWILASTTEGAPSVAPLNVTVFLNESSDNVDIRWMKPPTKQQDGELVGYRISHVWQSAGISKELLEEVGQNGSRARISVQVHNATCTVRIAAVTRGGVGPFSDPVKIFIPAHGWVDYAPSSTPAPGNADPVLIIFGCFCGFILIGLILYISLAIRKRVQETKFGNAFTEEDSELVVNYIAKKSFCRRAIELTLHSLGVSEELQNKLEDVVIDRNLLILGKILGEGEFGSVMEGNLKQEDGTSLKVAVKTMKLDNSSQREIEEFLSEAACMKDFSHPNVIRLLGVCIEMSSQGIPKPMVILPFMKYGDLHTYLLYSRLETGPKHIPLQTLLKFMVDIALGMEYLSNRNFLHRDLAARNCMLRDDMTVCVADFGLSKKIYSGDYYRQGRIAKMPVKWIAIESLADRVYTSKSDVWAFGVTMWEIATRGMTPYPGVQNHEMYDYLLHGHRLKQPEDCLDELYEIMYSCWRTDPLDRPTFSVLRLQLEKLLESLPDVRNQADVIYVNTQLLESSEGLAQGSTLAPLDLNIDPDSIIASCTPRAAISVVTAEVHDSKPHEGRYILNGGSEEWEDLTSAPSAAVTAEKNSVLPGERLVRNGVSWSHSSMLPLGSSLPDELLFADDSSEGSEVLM
Sequence of Fyn (P06241 whole entry, looked up): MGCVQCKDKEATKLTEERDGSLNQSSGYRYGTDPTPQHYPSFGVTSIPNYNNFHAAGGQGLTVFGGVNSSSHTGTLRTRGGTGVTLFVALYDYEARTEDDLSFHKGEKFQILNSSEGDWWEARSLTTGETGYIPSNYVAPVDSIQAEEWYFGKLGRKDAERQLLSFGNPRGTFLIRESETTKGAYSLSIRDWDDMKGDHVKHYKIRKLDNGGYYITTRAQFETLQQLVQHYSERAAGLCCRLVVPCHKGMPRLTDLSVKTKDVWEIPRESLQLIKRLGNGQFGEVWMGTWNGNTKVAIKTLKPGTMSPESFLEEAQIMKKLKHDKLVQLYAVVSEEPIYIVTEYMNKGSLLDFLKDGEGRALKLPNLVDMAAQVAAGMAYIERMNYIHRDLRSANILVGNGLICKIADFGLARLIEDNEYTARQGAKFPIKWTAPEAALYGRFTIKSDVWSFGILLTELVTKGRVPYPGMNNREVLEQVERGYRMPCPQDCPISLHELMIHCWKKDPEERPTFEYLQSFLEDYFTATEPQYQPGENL

Sequence | SH2 binding enrichment (c-Src SH2) | SH2 binding enrichment (Grb2 SH2) | SH2 binding enrichment (SHP2-C SH2) | phosphorylation enrichment (EPHB1) | phosphorylation enrichment (Fyn) | phosphorylation enrichment (FGFR1) | phosphorylation enrichment (AncSZ) | phosphorylation enrichment (c-Src) | phosphorylation enrichment (Jak2) | phosphorylation enrichment (Hck) | phosphorylation enrichment (EPHB2) | phosphorylation enrichment (Fes) | phosphorylation enrichment (MERTK) | phosphorylation enrichment (FGFR3) | phosphorylation enrichment (Fer (mouse)) | phosphorylation enrichment (c-Abl (mouse))
GFVEDYRPPFF [ACVRL1_Y421_I417F_YF] | 0.398 | 0.784 | 0.675 | 0.504 | 0.442 | 0.537 | 0.944 | 0.501 | 0.879 | 0.525 | 0.444 | 0.987 | 0.428 | 0.6 | 0.411 | 0.868
FPPISYLNAIS [MVD_Y276] | 0.491 | 0.668 | 0.771 | 0.383 | 0.488 | 0.473 | 0.813 | 0.466 | 0.51 | 0.465 | 0.472 | 0.675 | 0.49 | 0.522 | 0.408 | 0.664
CSKRFYQLTKL [AR_Y858_R855K] | 0.777 | 1.08 | 0.874 | 0.545 | 0.454 | 0.401 | 0.75 | 0.449 | 0.706 | 0.424 | 0.44 | 0.888 | 0.47 | 0.556 | 0.492 | 0.587
EKSREYDRLFE [PIK3R1_Y463_YF] | 13.5 | 0.809 | 0.991 | 0.457 | 0.448 | 0.434 | 0.929 | 0.5 | 0.935 | 0.522 | 0.602 | 0.993 | 0.453 | 0.577 | 0.437 | 0.784
CEAIEYLESKQ [BTK_Y511_M509I] | 0.64 | 0.774 | 0.738 | 0.631 | 0.485 | 0.574 | 1.29 | 0.549 | 1.33 | 0.552 | 0.553 | 1.39 | 0.461 | 0.835 | 0.521 | 0.816
TRSFDYTEGGD [FGF7_Y58_M59T_YF] | 0.513 | 0.87 | 0.494 | 0.569 | 0.513 | 0.52 | 1.23 | 0.431 | 0.975 | 0.501 | 0.519 | 1.19 | 0.503 | 0.625 | 0.572 | 0.659
WFQTKYEELQV [KRT6B_Y360_I365V_YF] | 8.95 | 0.891 | 1.08 | 0.462 | 0.359 | 0.478 | 0.915 | 0.329 | 0.788 | 0.442 | 0.525 | 0.94 | 0.305 | 0.564 | 0.459 | 0.712
DNEFAYLKAII [HNF4A_Y288_YF] | 0.429 | 0.775 | 0.491 | 0.45 | 0.386 | 0.425 | 1.13 | 0.419 | 0.91 | 0.407 | 0.455 | 1.07 | 0.334 | 0.648 | 0.381 | 0.689
CTTIHYMFMCN [TP53_Y234_N235M_YF] | 1 | 1.38 | 1.51 | 0.608 | 0.445 | 0.526 | 1.05 | 0.38 | 1.02 | 0.552 | 0.668 | 1.22 | 0.367 | 0.659 | 0.555 | 0.673
SVTCTYSPGLN [TP53_Y126_A129G] | 0.444 | 0.723 | 0.469 | 0.761 | 0.525 | 0.511 | 1.42 | 0.612 | 1.46 | 0.595 | 0.686 | 1.57 | 0.454 | 0.998 | 0.609 | 1.05
VAVVQYSGMGQ [COL6A1_Y878_T881M] | 0.603 | 0.763 | 0.927 | 0.382 | 0.439 | 0.44 | 0.554 | 0.451 | 0.612 | 0.416 | 0.363 | 0.757 | 0.524 | 0.506 | 0.407 | 0.62
TDEYEYDELIV [TGM1_Y136] | 0.786 | 1.07 | 0.761 | 0.588 | 0.57 | 0.664 | 1.3 | 0.454 | 0.785 | 0.775 | 0.566 | 1.2 | 0.436 | 0.805 | 0.526 | 0.705
RGVTRYIFNRE [HLA-DQB1_Y62_Y58G_YF] | 0.494 | 0.821 | 0.512 | 1 | 0.982 | 0.757 | 2.22 | 1.38 | 1.74 | 1.08 | 0.766 | 1.85 | 1.59 | 1.27 | 0.886 | 1.34
AELVRYYMEHH [PTPN11_Y80_Q79R] | 0.69 | 0.89 | 0.875 | 1.03 | 0.514 | 0.623 | 0.856 | 0.486 | 0.865 | 0.683 | 0.857 | 1.12 | 0.639 | 0.673 | 0.457 | 0.421
ELTAKYLNYYQ [P3H4_Y181] | 1.38 | 2.21 | 1.03 | 0.705 | 0.407 | 0.683 | 0.781 | 0.492 | 0.715 | 0.493 | 0.642 | 0.802 | 0.977 | 0.71 | 0.445 | 0.564
EEEPVYKAEPE [HCLS1_Y360_E361K] | 0.569 | 0.797 | 0.509 | 0.573 | 0.675 | 0.597 | 1.06 | 0.717 | 1.36 | 0.595 | 0.525 | 1.49 | 0.518 | 0.891 | 0.576 | 0.826
CTTVHYNFMCN [TP53_Y234_I232V_YF] | 2.66 | 1.61 | 2.38 | 0.458 | 0.499 | 0.472 | 0.769 | 0.499 | 0.622 | 0.445 | 0.52 | 0.901 | 0.384 | 0.673 | 0.598 | 0.687

Sequence | SH2 binding enrichment (c-Src SH2) | SH2 binding enrichment (Grb2 SH2) | SH2 binding enrichment (SHP2-C SH2) | phosphorylation enrichment (EPHB1) | phosphorylation enrichment (Fyn) | phosphorylation enrichment (FGFR1) | phosphorylation enrichment (AncSZ) | phosphorylation enrichment (c-Src) | phosphorylation enrichment (Jak2) | phosphorylation enrichment (Hck) | phosphorylation enrichment (EPHB2) | phosphorylation enrichment (Fes) | phosphorylation enrichment (MERTK) | phosphorylation enrichment (FGFR3) | phosphorylation enrichment (Fer (mouse)) | phosphorylation enrichment (c-Abl (mouse))
GEDDVYDSVPG [FGR_opt_2018] | 0.587 | 0.85 | 0.623 | 0.683 | 1.59 | 0.676 | 1.39 | 0.933 | 0.946 | 1.37 | 0.762 | 1.2 | 0.544 | 0.783 | 0.861 | 0.617
QEKKGYFEDRR [GLUL_Y336] | 0.952 | 1.02 | 0.761 | 0.618 | 0.906 | 0.682 | 0.907 | 0.469 | 0.628 | 0.792 | 0.577 | 1 | 0.605 | 0.733 | 0.821 | 1.2
GSERDYTYEEL [EIF2S2_Y174] | 0.944 | 0.969 | 0.761 | 0.602 | 1.09 | 0.535 | 1.36 | 1.63 | 1.29 | 1.21 | 0.645 | 1.13 | 0.707 | 0.711 | 0.6 | 0.977
PIYLYYLMDLS [ITGB2_Y131_D128Y] | 0.751 | 0.902 | 0.842 | 7.52 | 5.41 | 13.6 | 4.09 | 6.42 | 8.11 | 4.44 | 6.17 | 3.42 | 11.1 | 13.9 | 4.54 | 3.32
PAGSGYPAYLG [ATP6V1A_Y374_D371G] | 0.396 | 0.884 | 0.688 | 1.22 | 0.574 | 1.17 | 0.782 | 0.417 | 0.727 | 0.645 | 0.638 | 0.752 | 0.442 | 0.914 | 0.866 | 0.525
QDEHGYISWCF [HSPB1_Y133_R136W] | 0.545 | 0.64 | 0.463 | 1 | 0.559 | 1.27 | 2.17 | 0.865 | 2.61 | 0.944 | 0.873 | 2.34 | 0.8 | 1.8 | 1.05 | 1.55
MLEAPYVDRNS [F10_Y384_V382A] | 0.439 | 0.827 | 0.743 | 0.452 | 0.465 | 0.455 | 0.747 | 0.435 | 0.739 | 0.497 | 0.451 | 0.954 | 0.343 | 0.557 | 0.391 | 0.689
QRRLVYYERGA [RYR1_Y245_G248R] | 0.662 | 0.951 | 0.677 | 0.448 | 0.533 | 0.499 | 0.427 | 0.426 | 0.391 | 0.53 | 0.345 | 0.537 | 0.319 | 0.48 | 0.226 | 0.368
NNDLCYWVLEL [IARS1_Y434_P437L] | 0.55 | 0.664 | 0.518 | 1.37 | 5.45 | 7.77 | 2.47 | 5.34 | 3.65 | 4.01 | 1.05 | 1.88 | 2.33 | 7.8 | 1.33 | 1.31
ILQSMYGCDVG [HLA-B_Y123_T118I] | 0.402 | 0.818 | 0.566 | 0.659 | 0.489 | 0.403 | 0.816 | 0.569 | 0.893 | 0.517 | 0.51 | 0.935 | 0.438 | 0.624 | 0.48 | 0.546
SLALFYRNVFH [RBL1_Y792_K794N_YF] | 0.518 | 0.892 | 0.873 | 0.573 | 0.49 | 0.447 | 0.962 | 0.409 | 1.02 | 0.5 | 1.02 | 1.19 | 0.422 | 0.649 | 0.497 | 0.688
EIVFVYVKKRS [DNAI2_Y7_YF] | 0.516 | 0.995 | 0.833 | 0.373 | 0.341 | 0.498 | 0.995 | 0.386 | 1.34 | 0.456 | 0.476 | 1.05 | 0.296 | 0.467 | 0.593 | 0.585
PLLTDYSPQLQ [OTC_Y345_S340P] | 0.445 | 1 | 0.656 | 1.11 | 0.698 | 1.19 | 1.54 | 0.616 | 0.964 | 0.951 | 1.17 | 1.9 | 0.965 | 1.19 | 0.879 | 1.02
CGADSYEMEED [EGFR_Y316] | 0.797 | 0.825 | 0.652 | 0.685 | 0.534 | 0.536 | 1.57 | 0.483 | 1.08 | 0.705 | 0.72 | 1.27 | 0.549 | 0.899 | 0.533 | 0.827
LLVVLCKFRCF [PSEN1_Y154_Y154C_YF] | 1.57 | 1.82 | 1.84 | 0.619 | 0.731 | 0.648 | 1.4 | 1.48 | 1.82 | 0.887 | 0.694 | 1.73 | 0.984 | 0.999 | 0.722 | 1.23
YSKTQYNQVPR [CXADR_Y318_S323R] | 0.589 | 0.974 | 0.533 | 0.315 | 0.319 | 0.421 | 0.531 | 0.462 | 0.451 | 0.487 | 0.431 | 0.542 | 0.514 | 0.532 | 0.471 | 0.465

From the supplement of paper PMC10065799, “High-throughput profiling of sequence recognition by tyrosine kinases and SH2 domains using bacterial peptide display” (eLife, 2023)
